Measured values: patent US20210238262A1 (published 2021)

T1: Recombinant DENV-2 sE (1-396) from strain 16681-PDK53 with C-terminal AviTag and poly-histidine tags (UniProt P29991 281-676, biotinylated on the AviTag for BLI)
T1 chain: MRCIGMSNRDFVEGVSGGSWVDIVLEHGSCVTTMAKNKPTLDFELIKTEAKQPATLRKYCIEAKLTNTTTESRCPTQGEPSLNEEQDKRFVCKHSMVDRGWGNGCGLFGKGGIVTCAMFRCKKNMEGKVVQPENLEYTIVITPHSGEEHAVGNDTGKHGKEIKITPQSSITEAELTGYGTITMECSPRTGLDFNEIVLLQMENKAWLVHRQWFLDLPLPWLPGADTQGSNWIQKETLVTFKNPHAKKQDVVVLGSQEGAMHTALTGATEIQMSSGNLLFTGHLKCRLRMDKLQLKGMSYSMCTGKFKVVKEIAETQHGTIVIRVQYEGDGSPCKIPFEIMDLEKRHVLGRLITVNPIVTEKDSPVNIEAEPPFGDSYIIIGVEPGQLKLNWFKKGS


What was measured:
[1] = target: T1, Recombinant DENV-2 sE (1-396) from …; test: BLI; Fab
MZ2 = test: BLI; Fab

Row | Binder | Kd [1] | Kd (MZ2)
1 | MZ4 Fab (Fab, V domains shown) VH: QVHLQESGPGLVRPSETLSLTCTVSDGSISSYYWSWIRQPPGKGLEWIGSIYYTGSTNYNPSLKSRVTMSVDTSKNQFSLRLNSVTAADTAMYYCAGLDRYSWNEGGDHWGQGILVSVSS VL: QPVLTQPPSASGTPGQRVSISCSGSRSNLGKNTVNWYQQLPGTAPKLLIYNHSRRPSGVPERFSGSKSGTSASLAISGLQSEDEADYFCAAWDDSLNGLYVFGTGTKVTVLR | 1000 pM | –
2 | DENV-2 E (other, biotinylated on the AviTag for BLI) MRCIGMSNRDFVEGVSGGSWVDIVLEHGSCVTTMAKNKPTLDFELIKTEAKQPATLRKYCIEAKLTNTTTESRCPTQGEPSLNEEQDKRFVCKHSMVDRGWGNGCGLFGKGGIVTCAMFRCKKNMEGKVVQPENLEYTIVITPHSGEEHAVGNDTGKHGKEIKITPQSSITEAELTGYGTITMECSPRTGLDFNEIVLLQMENKAWLVHRQWFLDLPLPWLPGADTQGSNWIQKETLVTFKNPHAKKQDVVVLGSQEGAMHTALTGATEIQMSSGNLLFTGHLKCRLRMDKLQLKGMSYSMCTGKFKVVKEIAETQHGTIVIRVQYEGDGSPCKIPFEIMDLEKRHVLGRLITVNPIVTEKDSPVNIEAEPPFGDSYIIIGVEPGQLKLNWFKKGS | – | 400 pM
